In US12497460B2, “Anti-MSR1 antibodies and methods of use thereof” (REGENERON PHARMACEUTICALS, INC., priority 2018, dated 2025):
Marks after values point to notes of the source that are not given here.

Tests used:
[1] = target: T1, RAW264.7 cells (MSR1 positive) (Mus musculus, UniProt P30204); test: Flow cytometry binding to cell surface-expressed mouse MSR1; format: cell-based; details: 10 μg/mL antibody
T1 construct: using MSR1 positive RAW264.7 cells (ATCC, Catalog #TIB-71); host or cells: RAW264.7
T1 sequence (P30204 1-458): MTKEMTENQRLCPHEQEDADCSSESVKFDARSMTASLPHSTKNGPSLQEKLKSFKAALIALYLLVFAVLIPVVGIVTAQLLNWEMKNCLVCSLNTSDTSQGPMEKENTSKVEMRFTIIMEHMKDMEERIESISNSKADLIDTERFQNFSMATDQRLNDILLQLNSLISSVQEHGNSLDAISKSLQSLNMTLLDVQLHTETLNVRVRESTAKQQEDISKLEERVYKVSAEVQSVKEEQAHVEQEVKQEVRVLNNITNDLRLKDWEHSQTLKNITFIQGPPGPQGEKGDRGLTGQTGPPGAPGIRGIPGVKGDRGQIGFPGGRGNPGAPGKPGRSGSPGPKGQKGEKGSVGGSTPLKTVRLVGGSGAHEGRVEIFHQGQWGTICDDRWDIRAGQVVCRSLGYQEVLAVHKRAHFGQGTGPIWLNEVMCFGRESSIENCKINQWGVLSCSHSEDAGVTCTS
Method: To block binding to Fc receptors, RAW264.7 cells were incubated for 30 minutes at 4° C. with 500 μg/mL mouse IgG (Jackson ImmunoResearch, Cat #015-000-003) diluted in staining buffer, while B16F10.9 cells remained in staining buffer. Following Fc receptor blocking, 10 μg/mL of anti-MSR1 antibodies or an isotype control antibody were added to the cells and were subsequently incubated for 30 minutes on ice. […] The signal to noise (S/N) was determined by calculating the ratio of the anti-MSR1 antibodies or the control antibodies MFI to the unstained sample MFI (Table 11).

Msr1^hu/hu ApoE^−/− mice = test: In vivo LPS-induced cytokine production in serum; design: species or system mouse; details: 24 hours before in vivo LPS
Method: (§1) To examine the anti-inflammatory effect of the anti-MSR1 antibody-steroid conjugates, an ex-vivo and in vivo LPS-induced inflammatory immune response model was performed.
(§2) Generation of a mouse inflammatory immune response model. Mice homozygously expressing human MSR1 extracellular domain in place of the mouse MSR1 extracellular domain and with a homozygous deletion of the ApoE gene were utilized (resulting mice referred to as Msr1^hu/hu ApoE^−/− mice).
Assay protocol for in vivo LPS-induced responses. In in vivo LPS challenge experiments, mice were intraperitoneally administered with 10 μL/g of decreasing concentrations of anti-MSR1 antibody-steroid conjugates (H1H21234N-N297Q-LP13) and isotype control steroid conjugate (Isotype control-N297Q-LP13) at 24 hours prior to in vivo LPS challenge. PBS and free steroid P4 were intraperitoneally injected at 2 hours prior to in vivo LPS challenge. At 0 hour time point, three large drops of blood (volume ˜ 100 μL) were collected from the maxillary vein of each mouse into serum gel separator tubes. The tubes were centrifuged at 2200-2500 rpm for 15 minutes, and the serum was collected into 96-well plates for subsequent measurement of cytokines. At 18 hours post in vivo LPS challenge, the peritoneal cells were obtained from periotenal cavity as aforementioned for subsequent flow cytometry analysis.

[2] = system: Msr1^hu/hu ApoE^−/− mice, peritoneal cells; test: Ex vivo LPS-induced cytokine production by peritoneal cells after in vivo dosing; design: species or system mouse; details: for Cytokine IL-6 / Cytokine KC-GRO / Cytokine TNF-α: ex vivo LPS
Method: as §1, §2
Assay protocol for ex vivo LPS-induced responses. In ex vivo LPS challenge experiments, mice were intraperitoneally administered with 10 μL/g of anti-MSR1 antibody-steroid conjugates (H1H21234N-N297Q-LP13), isotype control steroid conjugate (Isotype control-LP13), unconjugated anti-MSR1 antibody (H1H21234N-N297Q) and isotype control antibodies at different time points (24, 48, and 72 hours) prior to harvesting the peritoneal cells from peritoneal cavity. […] All mice were sacrificed at 0 hour time point and peritoneal cells were obtained from the peritoneum by the peritoneal lavage technique. In brief, 5 mL of ice cold 1×PBS (ThermoFisher Scientific, Cat #20012027) containing 2% BSA (Gibco, Cat #A9576) and 0.6 mM EDTA (ThermoFisher Scientific, Cat #15575020) were injected into the peritoneal cavity using 27 g needle. […] The resuspended cells were plated at 500,000 cells per well in 24-well tissues culture plates and incubated with or without 10 ng/mL of LPS for 18 hours.
Measurement of cytokines at 18 hours post-LPS ex vivo challenge. Supernatants were collected into 96-well round bottom tissue culture plates at 18 hours post-ex vivo LPS challenge and stored at […] until further analysis. Cytokine concentrations in the supernatants were measured using a Proinflammatory Panel 1 (mouse) multiplex immunoassay kit (MesoScale Diagnostics, Cat #K15048D) according to manufacturer's instructions. Electrochemiluminescence was read on a Meso Scale Diagnostics SECTOR® instrument. Data analysis was performed using GraphPad Prism™ software. Statistical significance within the groups was determined by one-way Anova with Turkey's multiple comparison post-test (*p<0.01; **p<0.001; ***p<0.0001).

[3] = administered 24 hours before peritoneal cell isolation
[4] = administered 48 hours before peritoneal cell isolation
[5] = administered 72 hours before peritoneal cell isolation

B1: H1H21227N-N297Q: "modified versions of 21227N (H1H21227N-N297Q and H1H21227N-N297D)"; anti-MSR1 antibody "with a N297Q single point mutation" (antibody, V domains shown)
VH: QVQLVQSGAEVKKPGASVKVSCKVSGYTLTELSIHWVRQVPGKGLEWMGGFDPEEGETIFAQEFRDRVTLTEDTSPDTAYMELSSLKSEDAAVYYCTTPRYCNNGICYDYWGQGTLVTVSS
VL: DIQMTQSPSSLSASVGDRVTITCRASQSISNYLNWYQQKPGKAPKLLIYTASSLQSGVPSRFSGSGSGTDFTLTISSLQTEDFATYYCQQSYSNFPITFGQGTRLEIKR
RAW264.7 MFI [1]: 12810 | RAW264.7 S/N [1]: 5 | signal to noise (S/N), MFI over unstained sample MFI [1]: 5

B2: H1H21234N-N297Q-LP13 (conjugate)
VH: QVQLQESGPGLVKPSETLSLTCTVTGGSISRNYWSWIRQPPGKGLEWIGYIYYSGSIDYNPSLKSRVTISVDTSKNQFSLKLSSMTAADTAVYYCARDRWNWKYGMDVWGQGTTVIVSS
VL: EIVLTQSPGTLSLSPGERATLSCRASQTVRNNYLAWYHQKPGQAPRLLIYGASSRATGIPDRFSGSGSGTDFTLTISRLEPEDFTVYYCHQYGNSPWTFGQGTKMEIKR
Cytokine IL-6 in serum (Msr1^hu/hu ApoE^−/− mice; 10.67 mg/kg): 33 ± 8.1 ng/mL | Cytokine KC-GRO in serum (Msr1^hu/hu ApoE^−/− mice; 10.67 mg/kg): 13.3 ± 1.2 ng/mL | Cytokine TNF-α in serum (Msr1^hu/hu ApoE^−/− mice; 10.67 mg/kg): 0.51 ± 0.08 ng/mL | Cytokine IL-6 in serum (Msr1^hu/hu ApoE^−/− mice; 32.03 mg/kg): 15.34 ± 5.2 ng/mL | Cytokine KC-GRO in serum (Msr1^hu/hu ApoE^−/− mice; 32.03 mg/kg): 10.6 ± 2.8 ng/mL | Cytokine TNF-α in serum (Msr1^hu/hu ApoE^−/− mice; 32.03 mg/kg): 0.48 ± 0.18 ng/mL | Cytokine IL-6 in serum (Msr1^hu/hu ApoE^−/− mice; 96.08 mg/kg): 7.7 ± 3.1 ng/mL | Cytokine KC-GRO in serum (Msr1^hu/hu ApoE^−/− mice; 96.08 mg/kg): 5.1 ± 1.5 ng/mL | Cytokine TNF-α in serum (Msr1^hu/hu ApoE^−/− mice; 96.08 mg/kg): 0.42 ± 0.14 ng/mL | Cytokine IL-6 [2, 3]: 21.1 ± 1.38**** ng/mL | Cytokine KC-GRO [2, 3]: 9.3 ± 1.7 ng/mL | Cytokine TNF-α [2, 3]: 0.26 ± 0.08*** ng/mL | Cytokine KC-GRO [2, 4]: 6.3 ± 2.3* ng/mL | Cytokine TNF-α [2, 4]: 0.58 ± 0.06* ng/mL | Cytokine IL-6 [2, 5]: 50.7 ± 14.1* ng/mL | Cytokine KC-GRO [2, 5]: 13.1 ± 1.1 ng/mL | Cytokine TNF-α [2, 5]: 0.47 ± 0.1** ng/mL | effect on ex vivo LPS-induced cytokine production (IL-6, KC-GRO, TNF-α) by peritoneal cells ([2]; i.p. dosing 24, 48, 72 hours (conjugates, antibodies) or 2 hours (free steroids) before cell harvest, 10 ng/mL LPS 18 hours): efficacious in inhibiting LPS-induced cytokine production by peritoneal cells in a time-dependent manner
